Reference: US20210284749A1 (ABL BIO, published 2021)
Numbering of substitutions follows the chain as printed.

Assays:
[1] = target: T1, rat BCMA (1-49) fused to the Fc region of human IgG1 (rat; human); assay: ELISA on 100 ng coated rat BCMA, antibody titrated, anti-human Fab HRP, absorbance 450 nm
T1 construct: Sino Biological Inc. 80156-R01H; also called 80156-R01H; not shown: Fc region of human IgG1
T1 chain: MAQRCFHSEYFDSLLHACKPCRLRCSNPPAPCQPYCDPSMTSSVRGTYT
Description: (§1) 100 ng of human, monkey, mouse, and rat BCMA antigens prepared in Example 1.1 were coated on the bottom of the plate, and then coated with 3% BSA to block nonspecific binding. Using the selected anti-BCMA IgG antibodies as primary antibodies, and the anti-human Fab HRP (1:20000 dilution) as a secondary antibody, ELISA assay was performed as described in Example 1.3.
(§2) Absorbancies at 450 nm measured with a microplate reader are shown in FIG. 3, and half maximal effective concentrations (EC₅₀) (nM) are shown in Table 9.

[2] = target: T2, recombinant human BCMA (ELISA antigen, construct not specified) (human, UniProt Q02223 1-54); assay: ELISA on coated recombinant human BCMA, antibody titrated, HRP anti-Fab detection, absorbance 450 nm
T2 construct: Fc 1-51; Fc/His 1-51; Fc 4-48) was coated in these ELISAs; also called recombinant BCMA; recombinant protein
T2 sequence: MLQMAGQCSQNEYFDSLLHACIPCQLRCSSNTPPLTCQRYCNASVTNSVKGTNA
Description: Specific binding abilities of the anti-BCMA IgG antibodies isolated in Example 1.4 to recombinant BCMA protein were analyzed by ELISA.
Using recombinant human BCMA or monkey BCMA as an antigen, and HRP-conjugated Fab polychronal antibody reagent (Pierce, 31414) as a secondary antibody, ELISA was performed as described in Example 1.3.

[3] = target: T3, human BCMA-Fc (R&D system, 193-BC-050) (human, UniProt Q02223 1-54, limits assumed); assay: competition ELISA on coated human BCMA-Fc; antibody titrated and mixed with 200 ng/ml BAFF, bound BAFF detected, absorbance 450 nm
T3 construct: Bought construct; not shown: Fc part
T3 sequence: T2 sequence
Description: Specifically, human BCMA-Fc (R&D system, 193-BC-050) was diluted using a PBS buffer, and then 100 ng of the dilution per well was coated on the ELISA plate. After the coating, the plate was emptied, and 100 μl of PBST containing 1% BSA was added to each well and incubated at 37° C. for 2 hours. The antibodies diluted at a concentration of 50 μg/ml to 0.00028 μg/ml were mixed with 10 ng/ml of APRIL protein (R&D, 5860-AP-010/CF) or 200 ng/ml of BAFF (R&D, 2149-BF-010/CF). An IgG1 antibody was used as a negative control, and a J6MO antibody was used as a comparative group.
Using anti-HA-HRP (Roche, 12013819001) or anti-His-HRP (Roche, 11965085001) as secondary antibodies, ELISA assay was performed as described in Example 1.4(1). As a comparative group, anti-BCMA monoclonal antibody J6MO (GSK) was used.

human BCMA-Fc/His (1-51) = target: T4, human BCMA-Fc/His (1-51) (human, UniProt Q02223 1-51); assay: BLI (Octet), antigen on Ni-NTA biosensor, IgG in solution
T4 construct: also called recombinant human BCMA-Fc/His; recombinant human BCMA-His (Sino Biological Inc.); not shown: Fc region; C-terminal His tag
T4 sequence: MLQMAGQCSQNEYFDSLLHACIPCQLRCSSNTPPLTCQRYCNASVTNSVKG
Description: A 96-well black microplate was mounted on a Biosensor tray case, 200 μl of 1XKB was added to each of the 8 wells, and then 8 Ni-NTA biosensors (Fortebio) were inserted thereto for hydration for 10 minutes. For antigen fixation, 5 μg/ml of recombinant human BCMA-His (Sino Biological Inc.) was diluted using 1XKB. Experiments were performed with a threshold of 0.5 to 1.0 nm, and Octet Data Acquisition 9.0 software was activated to create an Octet program template. The first step was for Baseline 1, the second step was for loading, and the threshold was fixed to 0.5 to 1.0 nm. In the third step, which was for Baseline 2, association for 5 minutes and dissociation for 20 minutes were performed. A plate temperature was fixed to 30° C., and the prepared buffer solution was placed in order into a new 96-well black microplate according to the Octet program template. 200 μl of 1XKB used as Baseline 1 and recombinant human BCMA-Fc/His which is an antigen to be loaded were diluted to 5 μg/ml, and 200 μl of the dilution was added thereto. After adding 200 μl of 1XKB used as Baseline 2, 200 μl of the antibody to be reacted with the antigen was dispensed, and the instrument was operated. After completion of the experiment, an association constant (kon), a dissociation constant (kdis), and an equilibrium dissociation constant (KD) for each antibody were analyzed and calculated with Octet Analysis 9.0 software.

[4] = target: T2, recombinant human BCMA (ELISA antigen, …); assay: ELISA, 100 ng coated antigen
Description: as §1, §2

[5] = target: T5, mouse BCMA (1-49) fused to the Fc region of human IgG1 (mouse; human, UniProt O88472 1-49); assay: ELISA on 100 ng coated mouse BCMA, antibody titrated, anti-human Fab HRP, absorbance 450 nm
T5 construct: Sino Biological Inc. 50076-M01H; also called 50076-M01H; not shown: Fc region of human IgG1
T5 chain: T1 chain with R4Q, R22H, P31T, M40V, R45K
Description: as §1, §2

[6] = target: T6, human BCMA expressed on cell surface (H929, OPM-2, CHOK1-hBCMA cells) (human, UniProt Q02223 1-184); assay: FACS on OPM-2 cells, 10 µg/ml antibody, anti-human Fc-FITC; open histogram shifted right of the filled control
T6 construct: also called cell-surface BCMA; BCMA on cell surface
T6 sequence: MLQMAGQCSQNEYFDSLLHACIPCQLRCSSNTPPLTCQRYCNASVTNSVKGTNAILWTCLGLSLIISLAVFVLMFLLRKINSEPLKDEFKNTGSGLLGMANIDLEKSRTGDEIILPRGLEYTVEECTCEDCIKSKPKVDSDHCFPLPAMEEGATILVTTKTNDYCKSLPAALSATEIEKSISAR
Description: (§3) Multiple myeloma cancer cells H929 (ATCC, CRL9068™) and OPM-2 cell line (DSMZ, ACC 50), which are known to express BCMA, were prepared, and human BCMA-overexpressed CHOK1-hBCMA cell line (constructed by ABIBio) were prepared.
(§4) 10 μg/ml of the seven IgG antibodies (B58, 5A6, 5D5, 5B5, 1H, 2G, and 5G) purified in Example 1.4 was added to the prepared cells, incubated at 4° C. for 1 hour, and then washed two times with a PBS buffer solution. The anti-human Fc-FITC was diluted in 1:400, incubated at 4° C. for 1 hour, and then washed with a PBS buffer solution. These processes were repeated. In FIGS. 2A and 2B, MFI indicates mean fluorescence intensity.

[7] = target: T2, recombinant human BCMA (ELISA antigen, …); assay: ELISA on 100 ng coated human BCMA, antibody titrated, anti-human Fab HRP, absorbance 450 nm
Description: as §1, §2

[8] = target: T6, human BCMA expressed on cell surface …; assay: FACS on H929 cells, 10 µg/ml antibody, anti-human Fc-FITC; open histogram shifted right of the filled control
Description: as §3, §4

B1: anti-BCMA IgG antibody B58 (antibody, V domains shown)
VH: EVQLLESGGGLVQPGGSLRLSCAASGFTFSNYDMSWVRQAPGKGLEWVSWIYPSDSSIYYADSVKGRFTISRDNSKNTLYLQMNSLRAEDTAVYYCARGPFANKYRQFDYWGQGTLVTVSS
VL: QSVLTQPPSASGTPGQRVTISCSGSSSNIGSNSVSWYQQLPGTAPKLLIYADSKRPSGVPDRFSGSKSGTSASLAISGLRSEDEADYYCGSWDYSLSGYVFGGGTKLTVL
notes: also called B58 antibody
binding result [1]: no binding (tested: about 30 µg/ml) | EC50 (read off the curve) [2]: ~5 ng/mL | IC50 (read off the curve) [3]: ~5 nM | Kd (human BCMA-Fc/His (1-51)): 0.0273 nM | koff (human BCMA-Fc/His (1-51)): 2e-05 s⁻¹ | kon (human BCMA-Fc/His (1-51)): 735000 M⁻¹ s⁻¹ | EC50 [4]: 79 nM | binding result [5]: no binding (tested: about 30 µg/ml) | MFI [6]: 23.6 | EC50 (read off the curve) [7]: ~10 ng/mL | MFI [8]: 80.7
